In patent publication US20220290188:

Experiments:
Assay in all cases: cell_activity
[1] = system: TL11876 TALE-KRAB (synthetic); conditions: PD-1, day 2
[2] = system: TL11875 TALE-KRAB (synthetic); conditions: PD-1, day 2
[3] = system: pAL040 TALE-KRAB (synthetic); conditions: PD-1, day 2
[4] = system: TL8214 TALE-KRAB (synthetic); conditions: LAG3, day 2
[5] = system: TL11105 TALE-KRAB (synthetic); conditions: PD-1, day 2
[6] = system: TL11112 TALE-KRAB (synthetic); conditions: PD-1, day 2
[7] = system: TL11087 TALE-KRAB (synthetic); conditions: PD-1, day 2
[8] = system: TL11127 TALE-KRAB (synthetic); conditions: PD-1, day 2
[9] = system: TL8181 TALE-KRAB (synthetic); conditions: TIM3, day 2
[10] = system: TL11099 TALE-KRAB (synthetic); conditions: PD-1, day 2
[11] = system: TL11879 TALE-KRAB (synthetic); conditions: PD-1, day 2
[12] = system: TL9717 TALE-KRAB (synthetic); conditions: LAG3, day 2
[13] = system: TL11084 TALE-KRAB (synthetic); conditions: PD-1, day 2
[14] = system: TL11103 TALE-KRAB (synthetic); conditions: PD-1, day 2
[15] = system: pAL043 (PD02) TALE-KRAB (synthetic); conditions: PD-1, day 2
[16] = system: TL9606 TALE-KRAB (synthetic); conditions: LAG3, day 2
[17] = system: TL9598 TALE-KRAB (synthetic); conditions: LAG3, day 2
[18] = system: TL9337 TALE-KRAB (synthetic); conditions: TIM3, day 2
[19] = system: TL11124 TALE-KRAB (synthetic); conditions: PD-1, day 2
[20] = system: TL8241 TALE-KRAB (synthetic); conditions: LAG3, day 2
[21] = system: TL8188 TALE-KRAB (synthetic); conditions: TIM3, day 2
[22] = system: TL11093 TALE-KRAB (synthetic); conditions: PD-1, day 2
[23] = system: TL11092 TALE-KRAB (synthetic); conditions: PD-1, day 2
[24] = system: TL11102 TALE-KRAB (synthetic); conditions: PD-1, day 2
[25] = system: TL9342 TALE-KRAB (synthetic); conditions: TIM3, day 2
[26] = system: TL11106 TALE-KRAB (synthetic); conditions: PD-1, day 2
[27] = system: TL8220 TALE-KRAB (synthetic); conditions: LAG3, day 2
[28] = system: TL11110 TALE-KRAB (synthetic); conditions: PD-1, day 2
[29] = system: TL11131 TALE-KRAB (synthetic); conditions: PD-1, day 2
[30] = system: TL8222 TALE-KRAB (synthetic); conditions: LAG3, day 2
[31] = system: TL11877 TALE-KRAB (synthetic); conditions: PD-1, day 2; table prints SEQ 63 but bases match SEQ 18
[32] = system: TL11088 TALE-KRAB (synthetic); conditions: PD-1, day 2
[33] = system: TL8201 TALE-KRAB (synthetic); conditions: TIM3, day 2
[34] = system: TL8216 TALE-KRAB (synthetic); conditions: LAG3, day 2
[35] = system: TL11094 TALE-KRAB (synthetic); conditions: PD-1, CD3+ T cells, day 2
[36] = system: TL9339 TALE-KRAB (synthetic); conditions: TIM3, day 2
[37] = system: TL8189 TALE-KRAB (synthetic); conditions: TIM3, day 2
[38] = system: TL11128 TALE-KRAB (synthetic); conditions: PD-1, day 2
[39] = system: TL11119 TALE-KRAB (synthetic); conditions: PD-1, day 2
[40] = system: TL9820 TALE-KRAB (synthetic); conditions: LAG3, day 2
[41] = system: TL11101 TALE-KRAB (synthetic); conditions: PD-1, day 2
[42] = system: TL11130 TALE-KRAB (synthetic); conditions: PD-1, day 2
[43] = system: TL11096 TALE-KRAB (synthetic); conditions: PD-1, day 2
[44] = system: TL11132 TALE-KRAB (synthetic); conditions: PD-1, day 2
[45] = system: TL11129 TALE-KRAB (synthetic); conditions: PD-1, day 2
[46] = system: TL11104 TALE-KRAB (synthetic); conditions: PD-1, day 2
[47] = system: TL11108 TALE-KRAB (synthetic); conditions: PD-1, day 2
[48] = system: TL11126 TALE-KRAB (synthetic); conditions: PD-1, day 2
[49] = system: TL11133 TALE-KRAB (synthetic); conditions: PD-1, day 2

Sequence “GACCTGGGACAGTTTCC (double strand) [TL11876 site]” has an activity [1] greater than 80 % repression.
“GCAGATCCCACAGGCGC (double strand) [TL11875 site]” gave an activity [2] greater than 80 % repression.
In the case of “TCTGTCACTCTCGCCCAC (double strand) [pAL040 site]”, the activity [3] is reported as greater than 80 % repression.
“GGTCTCTGGGCCTTCA (double strand) [TL8214 site]” was tested, and the activity [4] was greater than 80 % repression.
“CCCTTCCGCTCACCTCCGC (double strand) [TL11105 site]” gave an activity [5] greater than 80 % repression.
For “CCCTTCAACCTGACCT (double strand) [TL11112 site]”, the activity [6] was greater than 80 % repression.
“CCTCCACATCCACGTGGGC (double strand) [TL11087 site]” was tested, and the activity [7] was greater than 50 % repression.
With “CTGTCACTCTCGCCCACGT (double strand) [TL11127 site]” the activity [8] was greater than 50 % repression.
With “ACTTCTTCCAACTGT (double strand) [TL8181 site]” the activity [9] was greater than 50 % repression.
For “GCCGCCTTCTCCACT (double strand) [TL11099 site]”, the activity [10] was greater than 80 % repression.
In the case of “CTTCCTCCACATCCACG (double strand) [TL11879 site]”, the activity [11] is reported as greater than 50 % repression.
“TTTGCTCTGTCTGCTC (double strand) [TL9717 site]” showed an activity [12] greater than 80 % repression.
“GGCCAGGGCGCCTGT (double strand) [TL11084 site]” was tested, and the activity [13] was greater than 50 % repression.
For “GCTCAGGCGGAGGTGAG (double strand) [TL11103 site]”, the activity [14] was greater than 50 % repression.
Sequence “TGGTGGGGCTGCTCC (double strand) [pAL043 site]” has an activity [15] greater than 80 % repression.
Sequence “TGGTCTCTGGGCCTTCACCC (double strand) [TL9606 site]” has an activity [16] greater than 80 % repression.
Sequence “TCTGCTGGTCTCTGGGCCTTC (double strand) [TL9598 site]” has an activity [17] greater than 80 % repression.
“TGGCAATCAGACACCCGGGTG (double strand) [TL9337 site]” gave an activity [18] greater than 80 % repression.
In the case of “CTCGCCCACGTGGATGTGG (double strand) [TL11124 site]”, the activity [19] is reported as greater than 50 % repression.
With “CTGTTCCCTGGGACACCCCC (double strand) [TL8241 site]” the activity [20] was greater than 50 % repression.
“GGCAGTGTTACTATAA (double strand) [TL8188 site]” showed an activity [21] greater than 80 % repression.
With “GGGGCTGCTCCAGGCATGC (double strand) [TL11093 site]” the activity [22] was greater than 50 % repression.
For “CTGCATGCCTGGAGCAG (double strand) [TL11092 site]”, the activity [23] was greater than 50 % repression.
“CCACTGCTCAGGCGGAGGT (double strand) [TL11102 site]” was tested, and the activity [24] was greater than 50 % repression.
Sequence “TGCCACACTACACACAT (double strand) [TL9342 site]” has an activity [25] greater than 80 % repression.
Sequence “TTCCCTTCCGCTCACC (double strand) [TL11106 site]” has an activity [26] greater than 80 % repression.
For “GCCGTTCTGCTGGTCTCT (double strand) [TL8220 site]”, the activity [27] was greater than 80 % repression.
For “CAACCTGACCTGGGACAGTT (double strand) [TL11110 site]”, the activity [28] was greater than 80 % repression.
“CCCCCAGCACTGCCTCT (double strand) [TL11131 site]” showed an activity [29] greater than 50 % repression.
In the case of “GCCGTTCTGCTGGTCT (double strand) [TL8222 site]”, the activity [30] is reported as greater than 80 % repression.
For “CCCAGGTCAGGTTGAAG (double strand) [TL11877 site]”, the activity [31] was greater than 80 % repression.
“CCCACAGGCGCCCTGG (double strand) [TL11088 site]” showed an activity [32] greater than 50 % repression.
“GAGAAAATTGTATTAGAT (double strand) [TL8201 site]” gave an activity [33] greater than 50 % repression.
For “TCTGCTGGTCTCTGGGCC (double strand) [TL8216 site]”, the activity [34] was greater than 80 % repression.
Work on “GGTGGGGCTGCTCCAGG (double strand) [TL11094 site]” yielded an activity [35] greater than 80 % repression.
With “TGTCTGATTGCCAGTGATT (double strand) [TL9339 site]” the activity [36] was greater than 80 % repression.
For “TGCCAGTGATTCTTATAGT (double strand) [TL8189 site]”, the activity [37] was greater than 80 % repression.
Work on “GCCTCTGTCACTCTCGCCC (double strand) [TL11128 site]” yielded an activity [38] greater than 80 % repression.
“GCTCCCGCCCCCTCTTCCT (double strand) [TL11119 site]” gave an activity [39] greater than 50 % repression.
Work on “TTCACCCCTGTGCCCGGCCTTCC (double strand) [TL9820 site]” yielded an activity [40] greater than 80 % repression.
“TCTCCACTGCTCAGGCG (double strand) [TL11101 site]” gave an activity [41] greater than 80 % repression.
Sequence “GACAGAGGCAGTGCTGG (double strand) [TL11130 site]” has an activity [42] greater than 50 % repression.
Sequence “GGAGCAGCCCCACCAGAGT (double strand) [TL11096 site]” has an activity [43] greater than 50 % repression.
With “CCTCCCCCAGCACTGC (double strand) [TL11132 site]” the activity [44] was greater than 80 % repression.
Sequence “GCCTCTGTCACTCTCG (double strand) [TL11129 site]” has an activity [45] greater than 80 % repression.
“TCCGCTCACCTCCGCCTGA (double strand) [TL11104 site]” gave an activity [46] greater than 80 % repression.
Sequence “GGGACAGTTTCCCTTC (double strand) [TL11108 site]” has an activity [47] greater than 80 % repression.
In the case of “CACTCTCGCCCACGTGGAT (double strand) [TL11126 site]”, the activity [48] is reported as greater than 50 % repression.
For “CCTCCCCCAGCACTGCC (double strand) [TL11133 site]”, the activity [49] was greater than 80 % repression.
